According to patent publication US20040072162A1, “Hiv peptides and nucleic acids encoding them for diagnosis and control of hiv infection” (priority 2000, published 2004):

target: HLA-A2 MHC-I (HLA-A*0204, affinity purified from the EBV transformed cell line RML) (human)

Row | Binder | Kd [nM]
1 | GLADQLIHM (modifications not checked) [8.11natM] | 135
2 | LKTAVQMAV (modifications not checked) [8.33nat] | 1330
3 | ALAALITPK (modifications not checked) [8.12nat] | 62
4 | LQLPPIERL (modifications not checked) [8.14nat] | 7.3
5 | RLAFHHMAR (modifications not checked) [8.47nat] | 670
6 | SLVKHHMYI (modifications not checked) [4.14 variant] | 123
7 | NIWATHACV (modifications not checked) [8.75natV] | 57
8 | VVAAIIAIV (modifications not checked) [8.1nat] | 260
9 | YLAWVPAHK (modifications not checked) [8.42nat] | 200
10 | KTKPPLPSV (modifications not checked) [8.10natT] | 39
11 | ALGPAATLE (modifications not checked) [8.64nat] | 830
12 | WLFKLVPV (modifications not checked) [8.121mod] | 183
13 | TLQEQIGWM (modifications not checked) [8.56nat] | 245
14 | ALGIIQAQ (modifications not checked) [8.116nat] | 97
15 | WCFKLVPV (modifications not checked) [8.121nat] | 200
16 | LCFGWCFKL (modifications not checked) [8.45natC] | 580
17 | RTLNAWVKV (modifications not checked) [8.54nat] | 170
18 | LNFPISPI (modifications not checked) [8.115nat] | 29
19 | GMGSPQILV (modifications not checked) [8.15natM (4.40)] | 120
20 | ALVEMGHHA (modifications not checked) [8.3nat] | 160
21 | SGGDPEIV (modifications not checked) [8.130nat] | 950
22 | YIKIFIMIV (modifications not checked) [8.93nat] | 24
23 | ATLEEMMTA (modifications not checked) [8.65nat] | 77
24 | FLGAAGST (modifications not checked) [8.135nat] | 870
25 | TGNPPIPV (modifications not checked) [8.123natG] | 700
26 | FLWMGYELH (modifications not checked) [8.21nat] | 445
27 | NTVATLYCV (modifications not checked) [8.49nat] | 170
28 | AIEAQQHLL (modifications not checked) [8.88nat] | 850
29 | SLVKHHMYV (modifications not checked) [4.14] | 21
30 | ILVESPAVL (modifications not checked) [8.16nat] | 13
